# Laboratory results reported in US9683238, “Vascular endothelial growth factor-binding aptamers” (National University Corporation Tokyo University of …).
# B1: 3R08 (3R#08) (ssDNA)
# DNA: TGTGGGGATGGATGGGCCGGGCTGC
# B2: 2R#11 (ssDNA)
# DNA: TGTGGGGGTGCGCGGGCCGGGCAGG
# B3: VEap121 (ssDNA)
# DNA: TGTGGGGGTGGACGGGCCGGGTAGA
# B4: 3R09 (3R#09) (ssDNA)
# DNA: TGTGGGGGTGGTTGGGCGGGGCTGC
# B5: 3R#01 (ssDNA)
# DNA: TGTGGGGGAGGACGGGCGGGGATGC
# B6: 3R#06 (ssDNA)
# DNA: TGTGGGGGGGGTGGGGGTGGACCGC
# B7: 3R03 (3R#03) (ssDNA)
# DNA: TGTGGGGGTGGACGGGCCGAGTACG
# B8: 3R#07 (ssDNA)
# DNA: TGTGCGGGTGGCCGGGGTGGCCTGC
# B9: 3R#10 (ssDNA)
# DNA: TGTGGGGCTGGGAGGTCGGGCCTGC
# B10: 2R#08 (ssDNA)
# DNA: TGTGGGGTTGGACGGACCGGGTAGG
# B11: 3R#04 (ssDNA)
# DNA: TGTGCGGGGGGTGGGGGTGGTTCCC
# B12: 3R02 (3R#02) (ssDNA)
# DNA: TGTGGGGGTGGACTGGGTGGGTACC
# B13: 3R02 bivalent (ssDNA)
# DNA: TGTGGGGGTGGACTGGGTGGGTACCTTTTTTTTTTTGTGGGGGTGGACTGGGTGGGTACC
# B14: 2R#10 (ssDNA)
# DNA: TGTGGGGTTGGACGGGCCGTGTAGA
# Key:
# [1] = target: T1, VEGF165 (vascular endothelial growth factor 165) (Homo sapiens, UniProt P15692-4 P15692-4:27-191); test: SPR; VEGF immobilized on CM5; TBS with 5 mM KCl, pH 7.4, 20 C; conditions: tags: R&D Systems, expressed in Sf21 insect cells, chain copies: 2 (inferred, homodimer)
# T1 sequence (P15692 other isoform, or with tags, fused parts or gaps): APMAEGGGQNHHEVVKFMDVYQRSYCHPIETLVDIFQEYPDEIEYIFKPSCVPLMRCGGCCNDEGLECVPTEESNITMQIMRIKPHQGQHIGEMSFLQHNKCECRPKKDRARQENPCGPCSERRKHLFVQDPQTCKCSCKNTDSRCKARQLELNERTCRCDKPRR
# Method: (§1) The capacity of each oligonucleotide to bind to VEGF was evaluated using Biacore T200 (GE Healthcare Japan, Japan) by measuring SPR on a CM5 sensor chip. VEGF was dissolved in 10 mM acetate buffer (pH 6.0), and VEGF (about 1000 RU) was covalently bound to the CM5 sensor chip using an amine coupling kit. A non-labeled oligonucleotide (1 µM) was dissolved in Tris-buffered saline (TBS: 10 mM Tris-HCl, 100 mM NaCl, 5 mM KCl; pH 7.4), and the resulting solution was heated at 95° C. for 5 minutes, followed by allowing the solution to cool slowly. Under these conditions, each oligonucleotide is folded to form its specific secondary structure. Various concentrations of the oligonucleotide diluted with TBS was injected at a flow rate of 20 µl/minute at 20° C. onto the CM5 chip on which VEGF was immobilized. Binding between the immobilized VEGF and the oligonucleotide was monitored. By injecting NaCl (1 M), the CM5 chip was regenerated. Using Biacore evaluation software, the association rate and the dissociation rate were approximated to calculate the K_d value.
# [2] = target: T1, VEGF165 (vascular endothelial growth …); test: SPR; no binding capacity; TBS, 20 C; conditions: tags: R&D Systems, expressed in Sf21 insect cells; chain copies: 2 (inferred, homodimer); G4 predicted
# Method: as §1
# [3] = target: T1, VEGF165 (vascular endothelial growth …); test: SPR; VEGF immobilized on CM5; TBS (10 mM Tris-HCl, 100 mM NaCl, 5 mM KCl, pH 7.4), 20 C; conditions: tags: R&D Systems, expressed in Sf21 insect cells; chain copies: 2 (inferred, homodimer)
Binder,binding result [2],further results
B1,–,Kd ([1]; G4 predicted): 1.5 nM
B2,no binding,–
B3,–,Kd ([1]; G4): 4.7 nM
B4,–,Kd ([1]; G4 predicted): 2.4 nM
B5,–,Kd ([1]; G4 predicted): 8.8 nM
B6,no binding,–
B7,–,Kd ([1]; G4 predicted): 1.7 nM
B8,no binding,–
B9,no binding,–
B10,no binding,–
B11,no binding,–
B12,–,Kd [1]: 0.3 nM
B13,–,Kd [3]: 0.03 nM
B14,no binding,–
